Target: T1, B3GNT2 (Homo sapiens, UniProt Q9NY97)
T1 construct: The respective ORFs of candidate genes [CD274 (NM_014143), MCL1 (NM_021960), JUNB (NM_002229), and B3GNT2 (NM_006577)] were synthesized; expressed in transfected cells; host or cells: A375 melanoma cells (lentiviral ORF overexpression)
T1 sequence (Q9NY97 1-397): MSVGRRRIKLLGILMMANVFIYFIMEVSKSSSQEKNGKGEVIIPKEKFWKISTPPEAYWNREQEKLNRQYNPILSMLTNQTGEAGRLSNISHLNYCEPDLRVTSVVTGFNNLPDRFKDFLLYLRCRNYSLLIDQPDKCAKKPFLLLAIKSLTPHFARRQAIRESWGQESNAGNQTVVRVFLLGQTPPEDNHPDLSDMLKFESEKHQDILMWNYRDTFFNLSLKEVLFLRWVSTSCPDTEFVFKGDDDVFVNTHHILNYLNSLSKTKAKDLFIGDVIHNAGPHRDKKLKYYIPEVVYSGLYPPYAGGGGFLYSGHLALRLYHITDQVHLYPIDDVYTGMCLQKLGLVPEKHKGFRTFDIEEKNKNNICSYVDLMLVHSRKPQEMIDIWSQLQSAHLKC
Test: Co-IP of FLAG-tagged B3GNT2 followed by mass spectrometry
Type: cell-based
Parameters: C-term IgG / C-term flag: unit not given here
Protocol: Cells were plated in 10-cm cell culture dishes and grown to 60-80% confluency. For each condition, two biological replicates were harvested for co-IP. Cells were washed with PBS and 4 mL of lysis buffer (20 mM HEPES, 1% Triton X-100, 150 mM NaCl, 1 mM EDTA, and 10% glycerol) containing protease inhibitor cocktail was added. Cells were scraped and lysate was incubated at 4° C. under rotary agitation for 1 h. Lysate was centrifuged at 14,000×g for 10 min at 4° C. Supernatant was transferred to a new tube and an aliquot was taken as the input. […] For Western blots, 10 μg/mL Chicken Anti-FLAG (Aves labs ET-DY100) and IgY control (R&D Systems AB-101-C) antibodies were biotinylated (Thermo Fisher Scientific 90407) and added to the respective conditions. Lysates with antibodies were incubated at 4° C. under rotary agitation overnight. For each mL of lysate, 50 μL of Pierce Protein A/G Magnetic Beads (Mass spectrometry; Thermo Fisher Scientific 88803) or Pierce Streptavidin Magnetic Beads (Western blot; Thermo Fisher Scientific 88817) was washed twice with lysis buffer. Lysates with antibodies were added to the beads and incubated at 4° C. under rotary agitation for 4 h. Beads were washed with lysis buffer 3 times and resuspended in lysis buffer for storage. […] This solution was subjected to solid phase extraction to concentrate the peptides and remove unwanted reagents followed by injection onto a Shimadzu HPLC with fraction collector. Eight fractions were collected and after concentration were injected on a Waters NanoAcquity HPLC equipped with a self-packed Aeris 3 μm C18 analytical column 0.075 mm by 20 cm, (Phenomenex). Peptides were eluted using standard reverse-phase gradients. The effluent from the column was analyzed using a Thermo Orbitrap Elite mass spectrometer (nanospray configuration) operated in a data dependent manner for 54 minutes. […] Scaffold Q+S (Proteome Software) was used to provide consensus reports for the identified proteins.

[1] = Co-IP followed by mass spectrometry of B3GNT2, C-term tag, FLAG pull-down
[2] = Co-IP followed by mass spectrometry of B3GNT2, C-term tag, IgG pull-down
[3] = Co-IP followed by mass spectrometry of B3GNT2, N-term tag, FLAG pull-down
[4] = Co-IP followed by mass spectrometry of B3GNT2, N-term tag, IgG pull-down
[5] = Co-IP with FLAG antibody, C-terminally FLAG-tagged B3GNT2, mass spectrometry count, unit not given
[6] = Co-IP with FLAG antibody, N-terminally FLAG-tagged B3GNT2, mass spectrometry count, unit not given
[7] = Co-IP with IgG control antibody, C-terminally FLAG-tagged B3GNT2, mass spectrometry count, unit not given
[8] = Co-IP with IgG control antibody, N-terminally FLAG-tagged B3GNT2, mass spectrometry count, unit not given

LGALS7B
C-term flag [1]: 4
C-term IgG [2]: 3
N-term FLAG [3]: 7
N-term IgG [4]: 4

KRT4
C-term flag [1]: 37
C-term IgG [2]: 0
N-term FLAG [3]: 22
N-term IgG [4]: 21

EPRS
C-term flag [5]: 4
N-term FLAG [6]: 3
C-term IgG [7]: 0
N-term IgG [8]: 0

HSPB1
C-term flag [1]: 4
C-term IgG [2]: 0
N-term FLAG [3]: 3
N-term IgG [4]: 4

SRSF1
C-term flag [1]: 9
C-term IgG [2]: 3
N-term FLAG [3]: 4
N-term IgG [4]: 5

ERLIN2
C-term flag [5]: 9
N-term FLAG [6]: 8
C-term IgG [7]: 0
N-term IgG [8]: 0

CLTC
C-term flag [1]: 7
C-term IgG [2]: 5
N-term FLAG [3]: 6
N-term IgG [4]: 6

AIFM1
C-term flag [5]: 5
N-term FLAG [6]: 5
C-term IgG [7]: 0
N-term IgG [8]: 0

SEL1L
C-term flag [5]: 5
N-term FLAG [6]: 3
C-term IgG [7]: 0
N-term IgG [8]: 0

PSMA4
C-term flag [5]: 0
N-term FLAG [6]: 2
C-term IgG [7]: 0
N-term IgG [8]: 0

S100A9
C-term flag [5]: 9
N-term FLAG [6]: 18
C-term IgG [7]: 5
N-term IgG [8]: 0

GCN1
C-term flag [5]: 4
N-term FLAG [6]: 14
C-term IgG [7]: 0
N-term IgG [8]: 0

ITGB3
C-term flag [1]: 3
C-term IgG [2]: 0
N-term FLAG [3]: 3
N-term IgG [4]: 0

S100A8
C-term flag [5]: 3
N-term FLAG [6]: 15
C-term IgG [7]: 5
N-term IgG [8]: 4

HSP90B1
C-term flag [5]: 56
N-term FLAG [6]: 9
C-term IgG [7]: 0
N-term IgG [8]: 0

TUBB2A
C-term flag [5]: 0
N-term FLAG [6]: 128
C-term IgG [7]: 0
N-term IgG [8]: 0

TPI1
C-term flag [1]: 2
C-term IgG [2]: 0
N-term FLAG [3]: 3
N-term IgG [4]: 2

TNKS1BP1
C-term flag [1]: 8
C-term IgG [2]: 2
N-term FLAG [3]: 2
N-term IgG [4]: 4

TUBB3
C-term flag [5]: 82
N-term FLAG [6]: 115
C-term IgG [7]: 0
N-term IgG [8]: 0

ATP5F1B
C-term flag [1]: 4
C-term IgG [2]: 0
N-term FLAG [3]: 2
N-term IgG [4]: 0

TUBB
C-term flag [5]: 117
N-term FLAG [6]: 164
C-term IgG [7]: 10
N-term IgG [8]: 10

SSRP1
C-term flag [1]: 6
C-term IgG [2]: 0
N-term FLAG [3]: 0
N-term IgG [4]: 0

HNRNPU
C-term flag [1]: 12
C-term IgG [2]: 0
N-term FLAG [3]: 0
N-term IgG [4]: 2

HSPA8
C-term flag [1]: 49
C-term IgG [2]: 15
N-term FLAG [3]: 41
N-term IgG [4]: 16

HSP90AB1
C-term flag [5]: 11
N-term FLAG [6]: 10
C-term IgG [7]: 2
N-term IgG [8]: 0

TAF15
C-term flag [1]: 10
C-term IgG [2]: 4
N-term FLAG [3]: 5
N-term IgG [4]: 10

CCT3
C-term flag [1]: 5
C-term IgG [2]: 0
N-term FLAG [3]: 0
N-term IgG [4]: 0

CSPG4
C-term flag [5]: 12
N-term FLAG [6]: 2
C-term IgG [7]: 0
N-term IgG [8]: 0

TNC
C-term flag [5]: 10
N-term FLAG [6]: 0
C-term IgG [7]: 0
N-term IgG [8]: 0

HBB
C-term flag [1]: 0
C-term IgG [2]: 0
N-term FLAG [3]: 4
N-term IgG [4]: 0

CFL1
C-term flag [1]: 6
C-term IgG [2]: 3
N-term FLAG [3]: 5
N-term IgG [4]: 3

LAMC1
C-term flag [1]: 4
C-term IgG [2]: 0
N-term FLAG [3]: 0
N-term IgG [4]: 0

TRIM21
C-term flag [1]: 0
C-term IgG [2]: 0
N-term FLAG [3]: 6
N-term IgG [4]: 0

Source: patent US20240261333A1, “NOVEL TARGETS FOR ENHANCING ANTI-TUMOR IMMUNITY” (THE BROAD INSTITUTE, INC., priority 2021, published 2024)
